# Test results taken from patent US20240294573A1, “CONSTRAINED PEPTIDES” (TearSolutions, Inc., priority 2019, published 2024).
# Bridge positions count the residues as written; N and C are the ends. Square brackets hold non-standard residues; d marks the D form. Ends that are not written are not given here. 2‑(7-octenyl)alanine = olefinic alpha-amino acid with 7-octenyl side chain, staple residue; 2‑(4-pentenyl)alanine = 2-(4-pentenyl)alanine
# Experiments:
# Assay type in all cases: physicochemical
# [1] = Circular dichroism of alkene constrained (stapled) Lacripep acetate salts in citrate buffer (Example 7); conditions: 10 mM sodium citrate buffer pH 6.5, 0.2 mg/mL, 35° C.
# Description: (§1) Alkene Constrained Analogs of Lacripep™ (SEQ ID NO:1) were synthesized with N-terminal acetylation and C-terminal amidation as an acetate salt. The compounds were reconstituted in 10 mM sodium citrate buffer, pH 6.5 for circular dichroism, with or without 10 mM n-DodecylPhosphoCholine (DPC). The resulting citric acid buffered solutions were tested for circular dichroism.
# (§2) CD spectra were obtained using the Jasco 810 CD/ORD with Fluorescence Monochrometer in a 1 mm quartz cell from Starna Cells, Inc. Spectra were obtained at 35° C. from 250 nm to 190 nm in continuous scanning mode (scanning speed, 100 nm/min; data pitch, 0.1 nm; bandwidth, 1 nm; response time, 4 s) with a nitrogen flow rate of 100 mL/min. An average of 3 spectra were obtained for each sample (N=3).
# [2] = Circular dichroism of cysteine disulfide constrained Lacripep acetate salts in citrate buffer (Example 8); conditions: 10 mM sodium citrate buffer pH 6.5, 0.2 mg/mL, 35° C.; for helicity (CD spectra): absence of 10 mM DPC; for negative CD signal between 200 nm and 230 nm: presence of DPC (10 mM)
# Description: as §1, with “Cysteine Disulfide” for “Alkene”, “DPC.” for “n-DodecylPhosphoCholine (DPC).”
# as §2
# [3] = Circular dichroism of Lacripep oleate salt vs acetate salt in citrate buffer (Example 3); conditions: CD, 0.2 mg/mL, 10 mM sodium citrate buffer pH 6.5, 35° C.
# Description: Lacripep™ (SEQ ID NO:1) was synthesized either without or with N-terminal acetylation and C-terminal amidation as an acetate salt. The compounds were reconstituted in 10 mM sodium citrate buffer, pH 6.5 for circular dichroism. Lacripep™ synthesized either without or with N-terminal acetylation and C-terminal amidation as an acetate salt was converted to an oleate salt by dissolving 1 equivalent of the Lacripep™ acetate salt and 4 equivalents of oleic acid (one oleic acid per lysine residue in Lacripep™) in a mixture of water buffered with citric acid to pH 6.5. The resulting solutions were then flash frozen and lyophilized under vacuum to remove the more volatile acetic acid. The lyophilized powder is suspended in water and the pH is adjusted to between 6.2 to 6.8 with citric acid and sodium citrate and the osmolality to between 250 to 350 mOsm/kg. […]
# as §2, with “An average of 3 spectra were obtained for each sample (N=3).” left out
# [4] = Circular dichroism of Lacripep acetate salt vs dodecylphosphocholine form in phosphate buffer (Example 2); conditions: CD, 0.2 mg/ml; for alpha helicity: 10 mM phosphate, 137 mM NaCl, 2.7 mM KCl buffer pH 7.4, 35° C., dpC forms with 10 mM dodecylphosphocholine; for irregular: phosphate buffer pH 7.4, 35° C., 10 mM dodecylphosphocholine
# Description: Lacripep™ (SEQ ID NO:1) was synthesized either without (unmodified, KQFIENGSEFAQKLLKKFS) or with (modified, Ac-KQFIENGSEFAQKLLKKFS-NH2)N-terminal acetylation and C-terminal amidation as an acetate salt. The compounds (0.2 mg/ml) were reconstituted in 10 mM phosphate, 137 mM NaCl, 2.7 mM KCl buffer, pH 7.4 with 10 mM dodecylphosphocholine for circular dichroism. CD spectra were obtained using the Jasco 810 CD/ORD with Fluorescence Monochrometer in a 1 mm quartz cell from Starna Cells, Inc. Spectra were obtained at 35° C. from 250 nm to 190 nm in continuous scanning mode (scanning speed, 100 nm/min; data pitch, 0.1 nm; bandwidth, 1 nm; response time, 4 s) with a nitrogen flow rate of 100 mL/min. An average of 3 spectra were obtained for each sample (N=3). Analysis of the dichroism spectra can use methods known in the art, including, DichroWeb: On-line analysis for protein Circular Dichroism spectra; Whitmore, L. and Wallace, B. A. (2008) Biopolymers 89: 392-400; Whitmore, L. and Wallace, B. A. (2004) Nucleic Acids Research 32: W668-673, each of which is incorporated by reference herein in its entirety.
Substance,helicity (CD spectra) [2],alpha helicity [4] [%],further results
Ac-KQ [2-(7-octenyl) alanine]-IENGSE-[2-(4-pentenyl) alanine]-AQKLLKKFS-NH2 (Ac-KQ[2‑(7-octenyl)alanine]IENGSE[2‑(4-pentenyl)alanine]AQKLLKKFS-NH2; staple 3-10; listed as Homo sapiens) [SEQ ID NO: 59],,,negative CD signal between 200 nm and 230 nm ([1]; presence of 10 mM DPC): approximately −50 Δε
Ac-KQF C(S-)EN C(S-)SE FAQ KLL KKF S-NH2 (Ac-KQFCENCSEFAQKLLKKFS-NH2; disulfide 4-7; SMILES CC(=O)N[C@@H](CCCCN)C(=O)N[C@@H](CCC(N)=O)C(=O)N[C@@H](Cc1ccccc1)C(=O)N[C@H]1CSSC[C@@H](C(=O)N[C@@H](CO)C(=O)N[C@@H](CCC(=O)O)C(=O)N[C@@H](Cc2ccccc2)C(=O)N[C@@H](C)C(=O)N[C@@H](CCC(N)=O)C(=O)N[C@@H](CCCCN)C(=O)N[C@@H](CC(C)C)C(=O)N[C@@H](CC(C)C)C(=O)N[C@@H](CCCCN)C(=O)N[C@@H](CCCCN)C(=O)N[C@@H](Cc2ccccc2)C(=O)N[C@@H](CO)C(N)=O)NC(=O)[C@H](CC(N)=O)NC(=O)[C@H](CCC(=O)O)NC1=O; listed as Homo sapiens) [SEQ ID NO: 72],significant helicity,,negative CD signal between 200 nm and 230 nm [2]: −20 to −30 Δε
Ac-KQF IEN C(S-)SE C(S-)AQ KLL KKF S-NH2 (Ac-KQFIENCSECAQKLLKKFS-NH2; bridge 7-10; not fully specified (bridges); printed as Ac-KQF IEN C(S-)SE C(S-)AQ KLL KKF S-NH2; listed as Homo sapiens) [SEQ ID NO: 70],significant helicity,,
Ac-KQF IEN GSE FAQ KC(S-)L KC(S-)F S-NH2 (Ac-KQFIENGSEFAQKCLKCFS-NH2; disulfide 14-17; SMILES CC[C@H](C)[C@H](NC(=O)[C@H](Cc1ccccc1)NC(=O)[C@H](CCC(N)=O)NC(=O)[C@H](CCCCN)NC(C)=O)C(=O)N[C@@H](CCC(=O)O)C(=O)N[C@@H](CC(N)=O)C(=O)NCC(=O)N[C@@H](CO)C(=O)N[C@@H](CCC(=O)O)C(=O)N[C@@H](Cc1ccccc1)C(=O)N[C@@H](C)C(=O)N[C@@H](CCC(N)=O)C(=O)N[C@@H](CCCCN)C(=O)N[C@H]1CSSC[C@@H](C(=O)N[C@@H](Cc2ccccc2)C(=O)N[C@@H](CO)C(N)=O)NC(=O)[C@H](CCCCN)NC(=O)[C@H](CC(C)C)NC1=O; listed as Homo sapiens) [SEQ ID NO: 69],significant helicity,,negative CD signal between 200 nm and 230 nm [2]: −5 to −10 Δε
Ac-KQFIENGSEFAQKLLKKFS-NH2 (listed as Homo sapiens) [Lacripep],significant helicity,,helicity (CD spectra) ([1]; absence of 10 mM DPC): little helicity
"Ac-KQFIENGSEFAQKLLKKFS-NH2 [modified acetate salt form] (also: acetate salt) [Lacripep with N-terminal acetylation and C-terminal amidation, acetate salt]",,28,alpha helicity [3]: 29%
Ac-KQFIENGSEFAQKLLKKFS-NH2 [modified dpC form] (also: dpC form) [terminally modified Lacripep constrained with 10 mM dodecylphosphocholine],,100,irregular [4]: 0%
"KQFIENGSEFAQKLLKKFS [unmodified acetate salt form] (not fully specified (N-terminus, C-terminus); also: acetate salt) [Lacripep without N-terminal acetylation and C-terminal amidation, acetate salt]",,27,alpha helicity [3]: 28%
"KQFIENGSEFAQKLLKKFS [unmodified dpC form] (not fully specified (N-terminus, C-terminus)) [unmodified Lacripep constrained with 10 mM dodecylphosphocholine]",,92,irregular [4]: 8%
